Reference: patent EP4778535A1 (Akeso Biopharma Co., Ltd., dated 2026)

Target: T1, human TIGIT-hFc (human, UniProt Q495A1 22-141)
T1 sequence (looked up): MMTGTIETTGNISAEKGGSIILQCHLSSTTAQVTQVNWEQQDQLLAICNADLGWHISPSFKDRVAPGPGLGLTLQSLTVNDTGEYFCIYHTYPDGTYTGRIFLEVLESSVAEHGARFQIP
Assay: indirect ELISA screen of hybridomas with human TIGIT-hFc as antigen

B1: 26B12 (antibody, V domains shown)
VH: EVQLQESGPGLVKPSQSLSLTCTVTGHSFTSDYAWNWIRQFPGNRLEWMGYISYSDSTNYNPSLKSRISITRDTSKNQFFLQMNSVTTEDTATYYCARLDYGNYGGAMDYWGQGTSVTVSS
VL: DIVLTQSHEFMSTSLRDRVSITCKSSQHVSTAVAWYQQKPGQSPKLLIYSASYRYTGVPDRFTGSGSGTDFTFTISSVKAEDLAVYYCQQHYITPWTFGGGTKLEIK
notes: Murine monoclonal antibody from a hybridoma; also called anti-TIGIT antibody 26B12; monoclonal antibody secreted by hybridoma cell line LT019
binding result: binds
